Two molecules from patent US7256259 (WISCONSIN ALUMNI RESEARCH FOUNDATION, dated 2007) can be followed below.

The target of the test is T1, S-protein (UniProt P61823 47-150).
T1 construct: also called purified S-protein; commercial S-protein (Sigma Chemical)
T1 sequence (looked up): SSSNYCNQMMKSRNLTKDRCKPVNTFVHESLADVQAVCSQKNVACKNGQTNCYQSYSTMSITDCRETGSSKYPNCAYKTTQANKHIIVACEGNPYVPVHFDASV
Put plainly: S-protein incubated on a glass slide with immobilized azido-S15; detected by activity assay and immunostaining. On the procedure: An amine-derivatized glass slide was treated with an excess of PEG having succinimidyl ester termini followed by diphenylphosphinomethanethiol resulting in a surface-bound phosphinothioester, as illustrated in Scheme 2. It is believed that the PEG layer (Mr) 3,400) prevented the non-specific attachment of protein to the glass surface. Serial dilutions of (N_3)Lys1 S15 and (N_3)Lys1 S15 were spotted on this phosphinothioester-derivatized slide. The peptide concentrations were 5.64 µM-56.4 pM for (N_3)Lys1 S15 and 4.38 µM-43.8 pM for (N_3)Lys1 S15. Afterwards, S-protein was spotted on the slide, which was washed with buffer. If S15 was successfully immobilized to the slide through the Staudinger ligation, the S-protein would bind to the immobilized S15 resulting in immobilized RNase S'.
Two types of assays were used to detect the presence of immobilized RNase S'. First, the ribonucleolytic activity of each spot was determined with a fluorogenic substrate. […]
RNase S' attached to the plate was visualized by immunostaining. […] RNase S' was detected by using a Fluorinate SI fluorescence scanner (Molecular Dynamics). (See FIG. 1A) The quantity of immobilized protein was determined with IMAGEQUANT densitometry software (Molecular Dynamics) and a standard curve generated by spotting various concentrations of Alexa Fluor® 488-conjugated secondary antibody.

Where no end group is shown, it is not given here. [ ]: non-standard residue; d: D form. The star is where a group is joined. Lys(N3) = [N-]=[N+]=NCCCC[C@H](N)C(=O)O; N3 = azido group, [N-]=[N+]=N*; PEG = not defined here

B1: N3-PEG-S15 (peptide)
peptide: {N3-PEG}-KETAAAKFERQHMDS
modifications: reading uncertain
notes: Synthetic S15 (first 15 residues of S-peptide) carrying N3-PEG at its N-terminus; In the assay it was immobilized on a phosphinothioester-derivatized glass slide; also called azido-S15; azido-peptide (main-chain azide)
As for B1, the binding result is recorded as “binds”.

B2: (N3)Lys1 S15 (peptide)
peptide: [Lys(N3)]ETAAAKFERQHMDS
notes: also called azido-S15
In the case of B2, the binding result is listed as “binds”.
